Test results as given in publication PMC6158211.

B1: 3xFlag-UBL3 (wild-type ubiquitin-like 3/membrane-anchored Ub-fold protein) [not stated] / ATXN10 [human (endogenous in MDA-MB-231)] (parent)
chain 1: MSSNVPADMINLRLILVSGKTKEFLFSPNDSASDIAKHVYDNWPMDWEEEQVSSPNILRLIYQGRFLHGNVTLGALKLPFGKTTVMHLVARETLPEPNSQGQRNREKTGESNCCVIL
chain 2: MAAPRPPPARLSGVMVPAPIQDLEALRALTALFKEQRNRETAPRTIFQRVLDILKKSSHAVELACRDPSQVENLASSLQLITECFRCLRNACIECSVNQNSIRNLDTIGVAVDLILLFRELRVEQESLLTAFRCGLQFLGNIASRNEDSQSIVWVHAFPELFLSCLNHPDKKIVAYSSMILFTSLNHERMKELEENLNIAIDVIDAYQKHPESEWPFLIITDLFLKSPELVQAMFPKLNNQERVTLLDLMIAKITSDEPLTKDDIPVFLRHAELIASTFVDQCKTVLKLASEEPPDDEEALATIRLLDVLCEMTVNTELLGYLQVFPGLLERVIDLLRVIHVAGKETTNIFSNCGCVRAEGDISNVANGFKSHLIRLIGNLCYKNKDNQDKVNELDGIPLILDNCNISDSNPFLTQWVIYAIRNLTEDNSQNQDLIAKMEEQGLADASLLKKVGFEVEKKGEKLILKSTRDTPKP
B2: 3xFlag-UBL3 (wild-type ubiquitin-like 3/membrane-anchored Ub-fold protein) [not stated] / TUBB4A [human (endogenous in MDA-MB-231)] (parent)
chain 1: B1 chain 1
chain 2: MREIVHLQAGQCGNQIGAKFWEVISDEHGIDPTGTYHGDSDLQLERINVYYNEATGGNYVPRAVLVDLEPGTMDSVRSGPFGQIFRPDNFVFGQSGAGNNWAKGHYTEGAELVDAVLDVVRKEAESCDCLQGFQLTHSLGGGTGSGMGTLLISKIREEFPDRIMNTFSVVPSPKVSDTVVEPYNATLSVHQLVENTDETYCIDNEALYDICFRTLKLTTPTYGDLNHLVSATMSGVTTCLRFPGQLNADLRKLAVNMVPFPRLHFFMPGFAPLTSRGSQQYRALTVPELTQQMFDAKNMMAACDPRHGRYLTVAAVFRGRMSMKEVDEQMLSVQSKNSSYFVEWIPNNVKTAVCDIPPRGLKMAATFIGNSTAIQELFKRISEQFTAMFRRKAFLHWYTGEGMDEMEFTEAESNMNDLVSEYQQYQDATAEEGEFEEEAEEEVA

Variants of: B1
Test: Flag antibody-bead pull-down, on-bead digestion, LC-MS/MS label-free quantification
Conditions: with ATXN10 [human (endogenous in MDA-MB-231)]; lysates of MDA-MB-231 cells; triplicate pull-downs; read off a plot

Row | screen value | Variant
1 | 5.1 log2 | chain 1 C113A C114A

Variants of: B2
Test: as above
Conditions: with TUBB4A [human (endogenous in MDA-MB-231)]; lysates of MDA-MB-231 cells; triplicate pull-downs; read off a plot

Row | screen value | Variant
2 | 3.2 log2 | chain 1 C113A C114A
